Target: chemokine (C-X-C) motif receptor (CXCR) 4 (UniProt P61073)
Experiment: cell-based or functional assay

Chain of chemokine (C-X-C) motif receptor (CXCR) 4 (P61073 whole entry): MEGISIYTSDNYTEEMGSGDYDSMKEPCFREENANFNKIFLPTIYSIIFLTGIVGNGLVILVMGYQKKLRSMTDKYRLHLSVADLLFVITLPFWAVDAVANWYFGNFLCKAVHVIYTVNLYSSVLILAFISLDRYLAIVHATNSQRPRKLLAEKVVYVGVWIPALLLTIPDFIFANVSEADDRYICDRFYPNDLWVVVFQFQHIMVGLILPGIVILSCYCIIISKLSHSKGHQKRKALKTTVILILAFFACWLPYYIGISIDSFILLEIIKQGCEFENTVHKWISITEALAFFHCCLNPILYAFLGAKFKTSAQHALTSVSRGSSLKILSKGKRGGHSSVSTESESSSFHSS

EC50, inhibition of thrombin-mediated hyper-permeability of hPPAEC (t=255 min)	concentration at which thrombin-mediated hPPAEC barrier impairment was affected (t=255 min)	Substance
0.05 to 0.5 nM		CXCL12 K27A/R41A/R47A (from UniProt P48061 22-89) (ligand)
0.5 to 50 nM		CXCL12 R47E (from UniProt P48061 22-89) (ligand)
0.05 to 0.5 nM		CXCL12β (from UniProt P48061 22-93) (ligand)
	50 nM	Locked dimer CXCL122 (constitutively dimeric CXCL12 variant, L36C/A65C) (from UniProt O62657 22-89) (ligand)
